Source: paper PMC7373190, “Archaeal Chromatin Proteins Cren7 and Sul7d Compact DNA by Bending and Bridging” (mBio, 2020)

Target: the molecule itself
Experiment: cross-linking; 10 ug protein in 10 ul, 1 mM DSP, 30 min at 25°C, 20 mM HEPES-KOH pH 7.6, 50 mM KCl, without or with pUC18 DNA (protein/DNA mass ratios 1:1 and 1:5); non-reducing 15% SDS-PAGE, Coomassie

B1: Sis7d (natural protein)
chain: MTTVKFKYKGEEKQVDTSKIKKVWRVGKMISFTYDEGGGKTGRGAVSEKDAPKELLQMLEKQKK
B1 was tested, and the “stoichiometry N” value was 2.
